Measurements reported in ChEMBL document CHEMBL2074420, “Taxol transport by human intestinal epithelial Caco-2 cells” (Drug Metab Dispos, 1998).

Tested on: CC(=O)O[C@H]1C(=O)[C@@]2(C)[C@H]([C@H](OC(=O)c3ccccc3)[C@]3(O)C[C@H](OC(=O)[C@H](O)[C@@H](NC(=O)c4ccccc4)c4ccccc4)C(C)=C1C3(C)C)[C@]1(OC(C)=O)CO[C@@H]1C[C@@H]2O
Assay: TP_TRANSPORTER: transepithelial transport (basal to apical) in Caco-2 cells
Format: functional, cell-based

Substance: ATP-dependent translocase ABCB1 (Homo sapiens)
- Km: 16.5 µM
